Data on 10 molecules can be found in PMC7250496 (Journal of medicinal chemistry, 2020).

Square brackets hold non-standard residues; d marks the D form. Dap = NC[C@H](N)C(=O)O

As a reminder, the IC50 is the concentration at which inhibition is half-maximal.

The labels stand for the following.
B1: c[Pro-Arg-Phe-Phe-Dap-Ala-Phe-DPro] (peptide)
chain: PRFFXAFP
modifications: Dap (diaminopropionic acid) at position 5 (X in the letters); DPro at position 8; head-to-tail cyclised (macrocycle)

T1 sequence (P41149 whole entry): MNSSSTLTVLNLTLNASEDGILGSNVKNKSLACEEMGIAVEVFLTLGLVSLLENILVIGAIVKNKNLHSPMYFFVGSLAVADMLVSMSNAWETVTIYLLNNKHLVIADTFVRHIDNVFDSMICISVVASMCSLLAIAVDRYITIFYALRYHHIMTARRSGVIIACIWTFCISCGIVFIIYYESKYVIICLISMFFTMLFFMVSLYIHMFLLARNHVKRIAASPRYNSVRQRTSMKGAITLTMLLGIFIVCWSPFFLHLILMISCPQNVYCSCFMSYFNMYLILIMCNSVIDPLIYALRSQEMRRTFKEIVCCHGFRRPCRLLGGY

The first experiment addresses T1, mouse melanocortin 5 receptor (mouse, UniProt P41149 1-325). As to the kind of experiment: radioligand binding.
As for B1, the half-inhibitory concentration (IC50) amounted to 1.7 µM.
The molecule cyclo(PCFF[Dap]AF[dP]) [c[Pro-Cys-Phe-Phe-Dap-Ala-Phe-DPro]] yielded an IC50 of more than 100 µM.
In the case of cyclo(PRYF[Dap]AF[dP]) [c[Pro-Arg-Tyr-Phe-Dap-Ala-Phe-DPro]], the concentration for half-maximal inhibition (IC50) amounted to 36 µM.
For cyclo(PCFFNAF[dP]) [c[Pro-Cys-Phe-Phe-Asn-Ala-Phe-DPro]], the IC50 is more than 100 µM.
Molecule cyclo(PRYFNAF[dP]) [c[Pro-Arg-Tyr-Phe-Asn-Ala-Phe-DPro]] registered an IC50 of more than 100 µM.
On the same count and under the same terms, next, cyclo(PHFFNAF[dP]) [c[Pro-His-Phe-Phe-Asn-Ala-Phe-DPro]]: more than 100 µM.
As to cyclo(PRFFNVF[dP]) [c[Pro-Arg-Phe-Phe-Asn-Val-Phe-DPro]], the half-maximal inhibitory concentration (IC50) came out at 29 µM.
Turning to cyclo(PHFF[Dap]AF[dP]) [c[Pro-His-Phe-Phe-Dap-Ala-Phe-DPro]], the 50% inhibitory concentration (IC50) is 12 µM.
On to cyclo(PRFF[Dap]VF[dP]) [c[Pro-Arg-Phe-Phe-Dap-Val-Phe-DPro]], for which the IC50 came to 2.7 µM. This IC50 lies about 4.4-fold lower than the previous one.

The target of another experiment is T2, mouse melanocortin 3 receptor (mouse, UniProt P33033 1-323). The experiment can be described thus: radioligand binding.
T2 sequence (P33033 whole entry): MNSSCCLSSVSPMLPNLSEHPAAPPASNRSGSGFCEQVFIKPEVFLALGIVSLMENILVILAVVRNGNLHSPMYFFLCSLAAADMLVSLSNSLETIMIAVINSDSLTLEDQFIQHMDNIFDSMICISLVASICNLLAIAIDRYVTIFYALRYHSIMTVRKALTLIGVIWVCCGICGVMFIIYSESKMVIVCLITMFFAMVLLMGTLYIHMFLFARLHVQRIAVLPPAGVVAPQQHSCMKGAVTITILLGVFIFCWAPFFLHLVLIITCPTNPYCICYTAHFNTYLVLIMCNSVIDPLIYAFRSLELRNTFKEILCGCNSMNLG
Regarding B1, the IC50 worked out at 3.2 µM.
cyclo(PCFF[Dap]AF[dP]) [c[Pro-Cys-Phe-Phe-Dap-Ala-Phe-DPro]] returned an IC50 of 49 µM.
The molecule cyclo(PRYF[Dap]AF[dP]) [c[Pro-Arg-Tyr-Phe-Dap-Ala-Phe-DPro]] displayed an IC50 of 28 µM. Against the preceding molecule, the IC50 is about 1.8-fold lower.
cyclo(PCFFNAF[dP]) [c[Pro-Cys-Phe-Phe-Asn-Ala-Phe-DPro]] came in with a 50% inhibitory concentration (IC50) of more than 100 µM.
cyclo(PRYFNAF[dP]) [c[Pro-Arg-Tyr-Phe-Asn-Ala-Phe-DPro]] yielded an IC50 of more than 100 µM.
For the molecule cyclo(PHFFNAF[dP]) [c[Pro-His-Phe-Phe-Asn-Ala-Phe-DPro]], the IC50 was more than 100 µM.
cyclo(PRFFNVF[dP]) [c[Pro-Arg-Phe-Phe-Asn-Val-Phe-DPro]] had an IC50 of 53 µM. That is a double-digit micromolar value.
For the molecule cyclo(PHFF[Dap]AF[dP]) [c[Pro-His-Phe-Phe-Dap-Ala-Phe-DPro]], the IC50 turned out to be 15 µM.
The same measure, in the same setting: for cyclo(PRFF[Dap]VF[dP]) [c[Pro-Arg-Phe-Phe-Dap-Val-Phe-DPro]] the value was 10 µM.

A further experiment deals with T3, mouse melanocortin 1 receptor (mouse, UniProt Q01727 1-315). As to the kind of experiment: radioligand binding.
T3 sequence (Q01727 whole entry): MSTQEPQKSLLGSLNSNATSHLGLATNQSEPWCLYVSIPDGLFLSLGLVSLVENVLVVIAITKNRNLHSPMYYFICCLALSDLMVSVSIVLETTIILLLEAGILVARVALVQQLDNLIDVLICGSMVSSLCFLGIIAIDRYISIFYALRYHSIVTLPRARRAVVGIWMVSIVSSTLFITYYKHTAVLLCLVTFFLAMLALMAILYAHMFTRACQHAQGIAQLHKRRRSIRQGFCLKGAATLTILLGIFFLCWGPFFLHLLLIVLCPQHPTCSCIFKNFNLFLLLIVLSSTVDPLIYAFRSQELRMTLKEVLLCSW
Consider B1, for which the 50% inhibitory concentration (IC50) was determined as 5.2 µM.
In the case of cyclo(PCFF[Dap]AF[dP]) [c[Pro-Cys-Phe-Phe-Dap-Ala-Phe-DPro]], the half-inhibitory concentration (IC50) was determined as 33 µM.
cyclo(PRYF[Dap]AF[dP]) [c[Pro-Arg-Tyr-Phe-Dap-Ala-Phe-DPro]]: the concentration for half-maximal inhibition (IC50) was found to be 18 µM.
Same read-out and setting: for cyclo(PRFFNAF[dP]) [c[Pro-Arg-Phe-Phe-Asn-Ala-Phe-DPro]] the value was 9 µM.
As for cyclo(PCFFNAF[dP]) [c[Pro-Cys-Phe-Phe-Asn-Ala-Phe-DPro]], the half-inhibitory concentration (IC50) is 24.6 µM.
The same measure, in the same setting: next, cyclo(PRYFNAF[dP]) [c[Pro-Arg-Tyr-Phe-Asn-Ala-Phe-DPro]]: more than 100 µM; cyclo(PHFFNAF[dP]) [c[Pro-His-Phe-Phe-Asn-Ala-Phe-DPro]]: more than 100 µM; cyclo(PRFFNVF[dP]) [c[Pro-Arg-Phe-Phe-Asn-Val-Phe-DPro]]: 15 µM.
In turn, cyclo(PHFF[Dap]AF[dP]) [c[Pro-His-Phe-Phe-Dap-Ala-Phe-DPro]] returned an IC50 of 25 µM.
In turn, cyclo(PRFF[Dap]VF[dP]) [c[Pro-Arg-Phe-Phe-Dap-Val-Phe-DPro]] showed an IC50 of 8 µM. Compared with the last molecule, the IC50 is about 3.1-fold lower.

The target of the next experiment is T4, mouse melanocortin 4 receptor (mouse, UniProt P56450 1-332). The experiment can be described thus: radioligand binding.
T4 sequence (P56450 whole entry): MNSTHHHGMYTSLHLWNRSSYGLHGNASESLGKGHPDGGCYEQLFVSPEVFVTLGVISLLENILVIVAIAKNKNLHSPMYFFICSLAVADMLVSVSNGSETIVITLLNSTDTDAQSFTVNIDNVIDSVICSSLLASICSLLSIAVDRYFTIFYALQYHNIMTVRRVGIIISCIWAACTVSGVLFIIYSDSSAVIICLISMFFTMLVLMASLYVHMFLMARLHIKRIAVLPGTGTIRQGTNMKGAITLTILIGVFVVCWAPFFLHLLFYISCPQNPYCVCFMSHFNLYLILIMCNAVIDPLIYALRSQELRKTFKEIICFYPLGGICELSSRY
In turn, cyclo(PCFF[Dap]AF[dP]) [c[Pro-Cys-Phe-Phe-Dap-Ala-Phe-DPro]] yielded a half-inhibitory concentration (IC50) of 10000 nM.
cyclo(PRYF[Dap]AF[dP]) [c[Pro-Arg-Tyr-Phe-Dap-Ala-Phe-DPro]] registered an IC50 of 134 nM. This IC50 lies about 75-fold lower than the previous one.
As for cyclo(PCFFNAF[dP]) [c[Pro-Cys-Phe-Phe-Asn-Ala-Phe-DPro]], the IC50 is 1900 nM. This IC50 is about 14-fold higher than that of the molecule before.
The molecule cyclo(PRYFNAF[dP]) [c[Pro-Arg-Tyr-Phe-Asn-Ala-Phe-DPro]] gave a concentration for half-maximal inhibition (IC50) of 2000 nM.
In turn, cyclo(PHFFNAF[dP]) [c[Pro-His-Phe-Phe-Asn-Ala-Phe-DPro]] came in with an IC50 of 6700 nM. This IC50 is about 3.4-fold higher than that of the molecule before.
In turn, cyclo(PRFFNVF[dP]) [c[Pro-Arg-Phe-Phe-Asn-Val-Phe-DPro]] had a half-inhibitory concentration (IC50) of 38 nM.
Molecule cyclo(PHFF[Dap]AF[dP]) [c[Pro-His-Phe-Phe-Dap-Ala-Phe-DPro]] returned a 50% inhibitory concentration (IC50) of 1000 nM.

The target in a further experiment is human melanocortin 4 receptor (human, UniProt P32245 1-332). As to the kind of experiment: radioligand binding.
Chain of human melanocortin 4 receptor (P32245 whole entry): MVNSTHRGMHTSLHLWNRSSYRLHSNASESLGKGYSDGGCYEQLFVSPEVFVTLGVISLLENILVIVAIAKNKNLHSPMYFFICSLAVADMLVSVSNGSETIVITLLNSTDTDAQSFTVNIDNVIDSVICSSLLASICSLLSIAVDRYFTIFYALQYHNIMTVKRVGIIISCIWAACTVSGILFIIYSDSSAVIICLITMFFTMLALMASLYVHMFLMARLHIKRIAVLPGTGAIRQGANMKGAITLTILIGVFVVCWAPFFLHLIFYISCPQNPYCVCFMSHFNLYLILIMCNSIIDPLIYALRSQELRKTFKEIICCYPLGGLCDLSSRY
With cyclo(PCFF[Dap]AF[dP]) [c[Pro-Cys-Phe-Phe-Dap-Ala-Phe-DPro]], the IC50 came to 15.7 µM. This counts as double-digit micromolar.
For cyclo(PRYF[Dap]AF[dP]) [c[Pro-Arg-Tyr-Phe-Dap-Ala-Phe-DPro]], the IC50 was found to be 1.02 µM.
In the case of cyclo(PCFFNAF[dP]) [c[Pro-Cys-Phe-Phe-Asn-Ala-Phe-DPro]], the 50% inhibitory concentration (IC50) was 19.3 µM.
Still for that read-out and setting: next, cyclo(PRYFNAF[dP]) [c[Pro-Arg-Tyr-Phe-Asn-Ala-Phe-DPro]]: 14.3 µM; cyclo(PHFFNAF[dP]) [c[Pro-His-Phe-Phe-Asn-Ala-Phe-DPro]]: 22 µM.
Turning to cyclo(PRFFNVF[dP]) [c[Pro-Arg-Phe-Phe-Asn-Val-Phe-DPro]], the IC50 amounted to 0.25 µM.
Turning to cyclo(PHFF[Dap]AF[dP]) [c[Pro-His-Phe-Phe-Dap-Ala-Phe-DPro]], the IC50 came to 2.7 µM.
Still for that read-out and setting: next, cyclo(PRFF[Dap]VF[dP]) [c[Pro-Arg-Phe-Phe-Dap-Val-Phe-DPro]]: 0.0322 µM.

Another experiment concerns the target T1, mouse melanocortin 5 receptor. As to the kind of experiment: cell-based or functional assay.
Consider cyclo(PCFF[Dap]AF[dP]) [c[Pro-Cys-Phe-Phe-Dap-Ala-Phe-DPro]], for which the “agonist activity, cAMP AlphaScreen, HEK293 cells stably expressing the receptor” value (“agonist activity, cAMP AlphaScreen” below) is more than 100 µM.
In the case of cyclo(PRYF[Dap]AF[dP]) [c[Pro-Arg-Tyr-Phe-Dap-Ala-Phe-DPro]], the “agonist activity, cAMP AlphaScreen” value is more than 100 µM.
Turning to cyclo(PHFFNAF[dP]) [c[Pro-His-Phe-Phe-Asn-Ala-Phe-DPro]], the “agonist activity, cAMP AlphaScreen” value was more than 100 µM.
As to cyclo(PRFFNVF[dP]) [c[Pro-Arg-Phe-Phe-Asn-Val-Phe-DPro]], the “agonist activity, cAMP AlphaScreen” value was more than 100 µM.
cyclo(PHFF[Dap]AF[dP]) [c[Pro-His-Phe-Phe-Dap-Ala-Phe-DPro]]: the “agonist activity, cAMP AlphaScreen” value was more than 100 µM.
For the molecule cyclo(PRFF[Dap]VF[dP]) [c[Pro-Arg-Phe-Phe-Dap-Val-Phe-DPro]], the “agonist activity, cAMP AlphaScreen” value was more than 100 µM.

For another experiment, the target named is T2, mouse melanocortin 3 receptor. The experiment can be described thus: cell-based or functional assay.
With cyclo(PCFF[Dap]AF[dP]) [c[Pro-Cys-Phe-Phe-Dap-Ala-Phe-DPro]], the “agonist activity, cAMP AlphaScreen” value was 29 % of maximal NDP-MSH response at 100 μM.
cyclo(PRYF[Dap]AF[dP]) [c[Pro-Arg-Tyr-Phe-Dap-Ala-Phe-DPro]]: the “agonist activity, cAMP AlphaScreen” value was more than 100 µM.
On to cyclo(PCFFNAF[dP]) [c[Pro-Cys-Phe-Phe-Asn-Ala-Phe-DPro]], for which the “agonist activity, cAMP AlphaScreen” value was more than 100 µM.
In the case of cyclo(PRYFNAF[dP]) [c[Pro-Arg-Tyr-Phe-Asn-Ala-Phe-DPro]], the “agonist activity, cAMP AlphaScreen” value was more than 100 µM.
cyclo(PHFFNAF[dP]) [c[Pro-His-Phe-Phe-Asn-Ala-Phe-DPro]]: the “agonist activity, cAMP AlphaScreen” value is more than 100 µM.
Same read-out and setting: for cyclo(PRFFNVF[dP]) [c[Pro-Arg-Phe-Phe-Asn-Val-Phe-DPro]] the value was more than 100 µM; for cyclo(PHFF[Dap]AF[dP]) [c[Pro-His-Phe-Phe-Dap-Ala-Phe-DPro]], more than 100 µM; for cyclo(PRFF[Dap]VF[dP]) [c[Pro-Arg-Phe-Phe-Dap-Val-Phe-DPro]], 27 % of maximal NDP-MSH response at 100 μM.

Another experiment concerns the target T3, mouse melanocortin 1 receptor. The experiment can be described thus: cell-based or functional assay.
Take cyclo(PCFF[Dap]AF[dP]) [c[Pro-Cys-Phe-Phe-Dap-Ala-Phe-DPro]]: the “agonist activity, cAMP AlphaScreen” value stood at 4 µM.
On to cyclo(PRYF[Dap]AF[dP]) [c[Pro-Arg-Tyr-Phe-Dap-Ala-Phe-DPro]], for which the “agonist activity, cAMP AlphaScreen” value was 48 % of maximal NDP-MSH response at 100 μM.
Take cyclo(PCFFNAF[dP]) [c[Pro-Cys-Phe-Phe-Asn-Ala-Phe-DPro]]: the “agonist activity, cAMP AlphaScreen” value is 46 % of maximal NDP-MSH response at 100 μM.
Consider cyclo(PRYFNAF[dP]) [c[Pro-Arg-Tyr-Phe-Asn-Ala-Phe-DPro]], for which the “agonist activity, cAMP AlphaScreen” value is more than 100 µM.
With cyclo(PHFFNAF[dP]) [c[Pro-His-Phe-Phe-Asn-Ala-Phe-DPro]], the “agonist activity, cAMP AlphaScreen” value is 23 % of maximal NDP-MSH response at 100 μM.
Take cyclo(PRFFNVF[dP]) [c[Pro-Arg-Phe-Phe-Asn-Val-Phe-DPro]]: the “agonist activity, cAMP AlphaScreen” value is 23 % of maximal NDP-MSH response at 100 μM.
Consider cyclo(PHFF[Dap]AF[dP]) [c[Pro-His-Phe-Phe-Dap-Ala-Phe-DPro]], for which the “agonist activity, cAMP AlphaScreen” value was 56 % of maximal NDP-MSH response at 100 μM.
With cyclo(PRFF[Dap]VF[dP]) [c[Pro-Arg-Phe-Phe-Dap-Val-Phe-DPro]], the “agonist activity, cAMP AlphaScreen” value is 79 % of maximal NDP-MSH response at 100 μM.

The next experiment deals with T4, mouse melanocortin 4 receptor. The experiment can be described thus: cell-based or functional assay.
In the case of cyclo(PCFF[Dap]AF[dP]) [c[Pro-Cys-Phe-Phe-Dap-Ala-Phe-DPro]], the “agonist activity, cAMP AlphaScreen” value was 42 % of maximal NDP-MSH response at 100 μM.
As for cyclo(PRYF[Dap]AF[dP]) [c[Pro-Arg-Tyr-Phe-Dap-Ala-Phe-DPro]], the “agonist activity, cAMP AlphaScreen” value is more than 100 µM.
In the case of cyclo(PCFFNAF[dP]) [c[Pro-Cys-Phe-Phe-Asn-Ala-Phe-DPro]], the “agonist activity, cAMP AlphaScreen” value was more than 100 µM.
In the case of cyclo(PRYFNAF[dP]) [c[Pro-Arg-Tyr-Phe-Asn-Ala-Phe-DPro]], the “agonist activity, cAMP AlphaScreen” value was more than 100 µM.
On to cyclo(PHFFNAF[dP]) [c[Pro-His-Phe-Phe-Asn-Ala-Phe-DPro]], for which the “agonist activity, cAMP AlphaScreen” value was more than 100 µM.
cyclo(PRFFNVF[dP]) [c[Pro-Arg-Phe-Phe-Asn-Val-Phe-DPro]]: the “agonist activity, cAMP AlphaScreen” value is 16 % of maximal NDP-MSH response at 100 μM.
On to cyclo(PHFF[Dap]AF[dP]) [c[Pro-His-Phe-Phe-Dap-Ala-Phe-DPro]], for which the “agonist activity, cAMP AlphaScreen” value was more than 100 µM.
On to cyclo(PRFF[Dap]VF[dP]) [c[Pro-Arg-Phe-Phe-Dap-Val-Phe-DPro]], for which the “agonist activity, cAMP AlphaScreen” value is 37 % of maximal NDP-MSH response at 100 μM.
